Source: the Human Domainome abundance scans (Beltran et al. 2025)
± gives the uncertainty stated by the source.

Assay: abundance fitness (aPCA) (normalised: wild type 0, dead -1); higher = more abundant; growth selection in yeast, the domain comes from the species named
Settings: Homo sapiens

“E3 ubiquitin-protein ligase NEDD4 K864R, P46934” and “E3 ubiquitin-protein ligase NEDD4 K844D, P46934” are within error of each other in abundance fitness: -0.042 ± 0.053 for the first, -0.053 ± 0.031 for the second.

Compared with “E3 ubiquitin-protein ligase NEDD4 A851D, P46934”, “E3 ubiquitin-protein ligase NEDD4 H850V, P46934” is lower in abundance fitness: -0.043 ± 0.04 for the first, -0.155 ± 0.055 for the second.

“E3 ubiquitin-protein ligase NEDD4 N853D, P46934” and “E3 ubiquitin-protein ligase NEDD4 I859V, P46934” are within error of each other in abundance fitness: -0.116 ± 0.071 for the first, -0.074 ± 0.065 for the second.

“E3 ubiquitin-protein ligase NEDD4 P852S, P46934” and “E3 ubiquitin-protein ligase NEDD4 F857Y, P46934” are within error of each other in abundance fitness: -0.058 ± 0.055 for the first, 0.013 ± 0.048 for the second.

First: E3 ubiquitin-protein ligase NEDD4 R849K, P46934
Second: E3 ubiquitin-protein ligase NEDD4 T863Q, P46934
The abundance fitness of the first is higher: 0.052 ± 0.062 for the first, -0.511 ± 0.1 for the second.

“E3 ubiquitin-protein ligase NEDD4 E869I, P46934” and “E3 ubiquitin-protein ligase NEDD4 V848I, P46934” are within error of each other in abundance fitness: -0.137 ± 0.071 for the first, -0.103 ± 0.075 for the second.
